Experimental data taken from US20240158497A1 (published 2024).

Columns and labels:
[1] = target: T1, human LEPR extracellular domain expressed with a C-terminal myc-myc-hexahistidine tag (human, UniProt P48357 22-839); assay: SPR Biacore 4000, bsAb captured by anti-human Fc, 25 C
T1 construct: Monomeric reagent; the whole entry is the construct with its tag; also called hLEPR-MMH; hLEPR.mmh
Experimental: (§1) Equilibrium dissociation constants (KD values) for LEPR and GP130 binding to purified anti-LEPR/GP130 bispecific antibodies were determined using a real-time surface plasmon resonance biosensor using a Biacore 4000 instrument. All binding studies were performed in 10 mM HEPES, 150 mM NaCl, 3 mM EDTA, and 0.05% v/v Surfactant Tween-20, pH 7.4 (HBS-ET) running buffer at 25° C. and 37° C. The Biacore sensor surface was first derivatized by amine coupling with a monoclonal mouse anti-human Fc antibody (GE, #BR-1008-39) to capture anti-LEPR/GP130 bispecific antibodies. […] Different concentrations of LEPR or GP130 reagents were first prepared in HBS-ET running buffer (100 nM-3.7 nM; 3-fold serial dilution) and were injected over anti-human Fc captured anti-LEPR/GP130 bispecific antibody surface for 4 minutes at a flow rate of 30 μL/minute, while the dissociation of bispecific antibody bound LEPR or GP130 reagent was monitored for 10 minutes in HBS-ET running buffer. Kinetic association (kₐ) and dissociation (kd) rate constants were determined by fitting the real-time binding sensorgrams to a 1:1 binding model with mass transport limitation using Scrubber 2.0c curve-fitting software. Binding dissociation equilibrium constants (KD) and dissociative half-lives (t ½) were calculated from the kinetic rate constants as: […]

[2] = target: T2, Macaca Fascicularis LEPR extracellular domain expressed with a C-terminal myc-myc-hexahistidine tag (Macaca fascicularis, UniProt Q9MYL0 22-837 (rhesus entry)); assay: as above
T2 construct: Monomeric reagent; the whole entry is the construct with its tag; also called mfLEPR-MMH
Experimental: as §1

[3] = target: T1, human LEPR extracellular domain …; assay: SPR Biacore 4000, bsAb captured by anti-human Fc, 37 C
Experimental: as §1

[4] = target: T2, Macaca Fascicularis LEPR extracellular …; assay: as above
Experimental: as §1

| 100 nM hLEPR-MMH Bound (RU) [1] | Kd [1] | koff [1] | kon [1] | t½ [1] | 100 nM mfLEPR-MMH Bound (RU) [2] | 100 nM hLEPR-MMH Bound (RU) [3] | Kd [3] | koff [3] | kon [3] | t½ [3] | 100 nM mfLEPR-MMH Bound (RU) [4] | Kd [2] | koff [2] | kon [2] | t½ [2] | Kd [4] | koff [4] | kon [4] | t½ [4] | Binder |
| --- | --- | --- | --- | --- | --- | --- | --- | --- | --- | --- | --- | --- | --- | --- | --- | --- | --- | --- | --- | --- |
| 57 RU | 7.85 nM | 0.000162 s⁻¹ | 20700 M⁻¹ s⁻¹ | 71 min | 7 RU | 81 RU | 19.1 nM | 0.000625 s⁻¹ | 32800 M⁻¹ s⁻¹ | 18 min | 7 RU | – | – | – | – | – | – | – | – | bsAb19757D (bispecific antibody, V domains shown, common light chain) VH 1: EVQLVESGGGLVQPGGSLRLSCVASGFTFNKYDMHWVRQTTGKGLEWVSGIDTDGDTYYPGSVKGRFTISRENAENSLYLQMNGLRVGDTAVYYCARWPWSGFYGAFDIWGQGTMVTVSS VH 2: EVQLVESGGGVVRPGGSLRLSCTASGFTFDDYGMSWVRQAPGKGLEWVSGINWNGGRTEYADAVKGRFIISRDNAKNSLYLQMNSLRAEDTALYFCARTELRWDYWGQGTLVTVSS VL: not shown |
| 36 RU | 7.16 nM | 0.000194 s⁻¹ | 27100 M⁻¹ s⁻¹ | 60 min | 96 RU | 61 RU | 18.4 nM | 0.000622 s⁻¹ | 33800 M⁻¹ s⁻¹ | 19 min | 154 RU | 2.65 nM | 0.000111 s⁻¹ | 41900 M⁻¹ s⁻¹ | 104 min | 8.09 nM | 0.000506 s⁻¹ | 62500 M⁻¹ s⁻¹ | 23 min | bsAb19149D (bispecific antibody, V domains shown, common light chain) VH 1: QVQLVESGGGVVQPGRSLRLSCTASGFTFSSYAMYWVRQAPGKGLEWVSVIYYDGSYKYYADSVKGRFTISRDNSKNTLYLQMDSLRAEDTAVYYCASYNWNYWYFDFWGRGTLVTVSS VH 2: QVQLVESGGGVVQPGRSLRLACAASGFTFRSYGMHWVRQAPGKGLEWVAVIWYDGSNKYYTDSVKGRFTISRDNSKNTLYLQMNSLRAEDTAMYYCAIDKWATVTTYLFDYWGQGTLVTVSS VL: not shown |
| 40 RU | 7.95 nM | 0.00018 s⁻¹ | 22600 M⁻¹ s⁻¹ | 64 min | 102 RU | 65 RU | 19.2 nM | 0.000729 s⁻¹ | 37900 M⁻¹ s⁻¹ | 16 min | 159 RU | 2.96 nM | 0.000121 s⁻¹ | 40800 M⁻¹ s⁻¹ | 96 min | 5.64 nM | 0.000541 s⁻¹ | 96000 M⁻¹ s⁻¹ | 21 min | bsAb19154D (bispecific antibody, V domains shown, common light chain) VH 1: QVQLVESGGGVVQPGRSLRLSCTASGFTFSSYAMYWVRQAPGKGLEWVSVIYYDGSYKYYADSVKGRFTISRDNSKNTLYLQMDSLRAEDTAVYYCASYNWNYWYFDFWGRGTLVTVSS VH 2: QVQLQQSGPGQMKSSQTLTLTCAISGDSVSSNSAIWYWIRQSPSRGLEWLGRTKFRSKWYNDFALSMKSRITINPDTSKNQFSLHLNSVTPEDTAVYYCARYKWELYFDYWGQGTLVTVSS VL: not shown |
| 40 RU | 6.36 nM | 0.000153 s⁻¹ | 24000 M⁻¹ s⁻¹ | 76 min | 103 RU | 63 RU | 20 nM | 0.000792 s⁻¹ | 39700 M⁻¹ s⁻¹ | 15 min | 155 RU | 2.9 nM | 0.000122 s⁻¹ | 42000 M⁻¹ s⁻¹ | 95 min | 5.49 nM | 0.000565 s⁻¹ | 103000 M⁻¹ s⁻¹ | 20 min | bsAb19155D (bispecific antibody, V domains shown, common light chain) VH 1: QVQLVESGGGVVQPGRSLRLSCTASGFTFSSYAMYWVRQAPGKGLEWVSVIYYDGSYKYYADSVKGRFTISRDNSKNTLYLQMDSLRAEDTAVYYCASYNWNYWYFDFWGRGTLVTVSS VH 2: EVQLVESGGGLVQPGGSLRLSCAASGFTFSTYWMNWVRQAPGKGLEWVANIKEDGSEKYYVDSVKGRFTISRDNAKNSLYLQMNSLRAEDTAVYYCAREGFGVVTYIWGQGTMVTVSS VL: not shown |
| 40 RU | 6.46 nM | 0.000165 s⁻¹ | 25500 M⁻¹ s⁻¹ | 70 min | 102 RU | 65 RU | 19.7 nM | 0.000791 s⁻¹ | 40100 M⁻¹ s⁻¹ | 15 min | 158 RU | 2.96 nM | 0.000126 s⁻¹ | 42600 M⁻¹ s⁻¹ | 92 min | 8.81 nM | 0.00058 s⁻¹ | 65800 M⁻¹ s⁻¹ | 20 min | bsAb19153D (bispecific antibody, V domains shown, common light chain) VH 1: QVQLVESGGGVVQPGRSLRLSCTASGFTFSSYAMYWVRQAPGKGLEWVSVIYYDGSYKYYADSVKGRFTISRDNSKNTLYLQMDSLRAEDTAVYYCASYNWNYWYFDFWGRGTLVTVSS VH 2: QVQLVQSGAEVMKPGASVKVSCRASGYTFSSYDINWVRQAPGQGLEWMGWISTATGNTNYPQKVQGRVTMTTDTSTNTAYMELRSLRSDDTAVYYCTREGNSKGWLDPWGQGTLVTVSS VL: not shown |
| 47 RU | 6.75 nM | 0.000165 s⁻¹ | 24500 M⁻¹ s⁻¹ | 70 min | 113 RU | 74 RU | 20.8 nM | 0.000787 s⁻¹ | 37700 M⁻¹ s⁻¹ | 15 min | 169 RU | 2.97 nM | 0.000124 s⁻¹ | 41800 M⁻¹ s⁻¹ | 93 min | 5.9 nM | 0.000589 s⁻¹ | 99900 M⁻¹ s⁻¹ | 20 min | bsAb19152D (bispecific antibody, V domains shown, common light chain) VH 1: QVQLVESGGGVVQPGRSLRLSCTASGFTFSSYAMYWVRQAPGKGLEWVSVIYYDGSYKYYADSVKGRFTISRDNSKNTLYLQMDSLRAEDTAVYYCASYNWNYWYFDFWGRGTLVTVSS VH 2: EVQLVQSGAEVKKPGESLKISCKGSGYSFTSYWIDWVRQMPGKGLEWMGIIYPDDSDTRYSPSFQGQVTMSVDKSISTAYLQWSSLKASDTAIYYCARHERGIVEAGTDYYYYYGMDVWGQGTTVTVSS VL: not shown |
| 39 RU | 7.11 nM | 0.000164 s⁻¹ | 23100 M⁻¹ s⁻¹ | 70 min | 97 RU | 60 RU | 23 nM | 0.000842 s⁻¹ | 36600 M⁻¹ s⁻¹ | 14 min | 148 RU | 3.27 nM | 0.000132 s⁻¹ | 40400 M⁻¹ s⁻¹ | 87 min | 5.88 nM | 0.000567 s⁻¹ | 96400 M⁻¹ s⁻¹ | 20 min | bsAb19156D (bispecific antibody, V domains shown, common light chain) VH 1: QVQLVESGGGVVQPGRSLRLSCTASGFTFSSYAMYWVRQAPGKGLEWVSVIYYDGSYKYYADSVKGRFTISRDNSKNTLYLQMDSLRAEDTAVYYCASYNWNYWYFDFWGRGTLVTVSS VH 2: QVQLVESGGGLVKPGGSLRLSCAASGFTFSDYYMTWIRQTPGKGLDWVSYISSSGTNKYNADSVKGRFTISRDNAKNSLYLQMNSLRAEDTAVYYCVRDPPWGMDVWGQGTTVTVSS VL: not shown |
| 41 RU | 7.35 nM | 0.000176 s⁻¹ | 24000 M⁻¹ s⁻¹ | 66 min | 102 RU | 63 RU | 19.5 nM | 0.000691 s⁻¹ | 35500 M⁻¹ s⁻¹ | 17 min | 158 RU | 2.79 nM | 0.000117 s⁻¹ | 41800 M⁻¹ s⁻¹ | 99 min | 5.25 nM | 0.000519 s⁻¹ | 98900 M⁻¹ s⁻¹ | 22 min | bsAb19150D (bispecific antibody, V domains shown, common light chain) VH 1: QVQLVESGGGVVQPGRSLRLSCTASGFTFSSYAMYWVRQAPGKGLEWVSVIYYDGSYKYYADSVKGRFTISRDNSKNTLYLQMDSLRAEDTAVYYCASYNWNYWYFDFWGRGTLVTVSS VH 2: EVQLVESGGGLVQSGGSLRLSCAASGFTFSRYEMNWVRQAPGKGLEWVAYISNTGTTRDYSDSVKGRFTISRDNAKNSLYLQMSSLRVEDTAVYYCVREKFSGTSDWFDPWGQGTLVTVSS VL: not shown |
| 46 RU | 7.49 nM | 0.000158 s⁻¹ | 21100 M⁻¹ s⁻¹ | 73 min | 109 RU | 70 RU | 18.3 nM | 0.00076 s⁻¹ | 41400 M⁻¹ s⁻¹ | 15 min | 167 RU | 2.74 nM | 0.000117 s⁻¹ | 42500 M⁻¹ s⁻¹ | 99 min | 5.3 nM | 0.000554 s⁻¹ | 105000 M⁻¹ s⁻¹ | 21 min | bsAb19151D (bispecific antibody, V domains shown, common light chain) VH 1: QVQLVESGGGVVQPGRSLRLSCTASGFTFSSYAMYWVRQAPGKGLEWVSVIYYDGSYKYYADSVKGRFTISRDNSKNTLYLQMDSLRAEDTAVYYCASYNWNYWYFDFWGRGTLVTVSS VH 2: EVQLVESGGGLVQPGGSLRLSCAASGFTFSSYAMNWVRQAPGKGLEWVSAISGSGDSTYYTDSVKGRFTISRDNSKNTLYLQMNTLRAEDTAVYYCAKEEIVMLVGATPGWFDPWGQGTLVTVSS VL: not shown |
